Laboratory results as given in US5066590A, “Superoxide dismutase combined with a poly(alkylene oxide)” (Ajinomoto Co., Inc., priority 1985, dated 1991).

Tests used:
[1] = Survival of SOD activity in the blood circulation (plasma SOD activity after i.v. infusion); type: in vivo, Wister rats; conditions: for Half life (half survival time of SOD activity in the circulation) / Time to 30% residual activity: 20 mg SOD content/kg, femoral vein, rats
Procedure: For each stabilized SOD obtained in the Examples, the survival time in the blood circulation was measured as follows. Four Wister rats, seven weeks old and weighing 249 to 277 g, were used for each sample. The rats were infused with 20 mg of the sample (20 mg SOD content for the modified SOD; 5 mg per rat) dissolved in a saline solution (0.5 ml per rat) per kg of body weight through the femoral vein, and samples of blood, each 0.2 ml, were withdrawn 5, 15 and 30 minutes and 1, 2, 4, 8, 24 and 48 hours after the injection. Each blood sample was centrifuged, and the SOD activity of the plasma was determined by the method of J. M. McCord et al (J. Biol. Chem.,.244, No. 22, 6049-55, 1969).

superoxide dismutase [2] = target: superoxide dismutase (Bos taurus, UniProt P00442); test: SOD enzyme activity by the method of McCord et al (residual activity vs starting SOD); type: biochemical, bovine; human
superoxide dismutase (Bos taurus, UniProt P00442), sequence (P00442 2-152 limits assumed): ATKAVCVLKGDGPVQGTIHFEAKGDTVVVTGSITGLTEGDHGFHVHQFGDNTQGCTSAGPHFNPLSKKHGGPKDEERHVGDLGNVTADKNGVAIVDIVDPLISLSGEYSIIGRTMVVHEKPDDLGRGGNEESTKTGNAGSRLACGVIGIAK
Procedure: (§1) The residual activity was obtained by the following method.
(§2) The concentration of each enzyme was obtained by the absorption method as mentioned above, and the residual activity was calculated from a comparison in activity after the reaction.

superoxide dismutase [3] = test: as above; type: biochemical, bovine; human
Procedure: as §1, §2

Lewis-lung tumor = test: Prevention of tumor metastasis (Lewis-lung tumor implanted in mice); type: in vivo, C57BL-6 mice; conditions: for Inhibition ratio (%) (number of tumor colonies) / Inhibition ratio (%) (weight of lung tumor) / Mean number of tumor colonies / Mean weight of lung tumor: 2 mg/kg i.v.
Procedure: 10^6 cells of Lewis-lung tumor were implanted onto the foot of a number of C57BL-6 mice, and the implanted tumor was removed at seventh day after the transplantation (n=7).
The modified SOD (m-SOD) obtained in Example 1 was dissolved in a saline solution (5 mg by SOD content in 1 ml saline solution). To the mice, the modified SOD solution (2 mg by SOD content per kg) was injected intravenously once a day for 5 days from the seventh day or fourteenth day after the transplantation.
On the 22nd day after the transplantation, the lungs were taken out and the number of colonies of metastasizing cells was determined. The inhibition of the metastasis was evaluated by the decrease of the number of colonies and the weight of metastasizing lung tumor.

superoxide dismutase [4] = conditions: starting material as purchased; cited from earlier work

Row | Substance | Half life (half survival time of SOD activity in the circulation) [1] | Time to 30% residual activity [1] | activity in the blood circulation with time ([1]; FIG. 5) | total activity (superoxide dismutase [2]; freeze-dried stabilized SOD) | total activity (superoxide dismutase [2]; reaction mixture after completion of the reaction) | residual activity (superoxide dismutase [2]; reaction mixture after completion of the reaction, in comparison with the original SOD) | Residual enzyme activity (%) (superoxide dismutase [3]; Table 1, stabilized SOD of Examples) | residual activity (superoxide dismutase [3]; isolated stabilized SOD, text of Examples) | Inhibition ratio (%) (number of tumor colonies) (Lewis-lung tumor; 5 injections after 7th day) | Inhibition ratio (%) (weight of lung tumor) (Lewis-lung tumor; 5 injections after 7th day) | Mean number of tumor colonies (Lewis-lung tumor; 5 injections after 7th day) | Mean weight of lung tumor (Lewis-lung tumor; 5 injections after 7th day) | Inhibition ratio (%) (number of tumor colonies) (Lewis-lung tumor; 5 injections after 14th day) | Inhibition ratio (%) (weight of lung tumor) (Lewis-lung tumor; 5 injections after 14th day) | Mean number of tumor colonies (Lewis-lung tumor; 5 injections after 14th day) | Mean weight of lung tumor (Lewis-lung tumor; 5 injections after 14th day) | number of colonies as compared to the non-treated mice (Lewis-lung tumor; "decreased below 40%") | weight of tumor as compared to the non-treated mice (Lewis-lung tumor; "decreased below 40%") | specific activity of purchased SOD (superoxide dismutase [4])
1 | Example 1: bovine SOD amide-linked to α-carboxymethyl, ω-carboxymethoxy polyoxyethylene (molecular weight about 4000), 2.4 molecules per enzyme | 240 min | 10 h | rapidly reduces after a few hours from the adminstration, and then it reduces slowly | 236000 units | 285000 units | 95±5% | 95% | 95% | 65% | 66% | 10.5 | 0.15 g | 72% | 77% | 8.4 | 0.10 g | below 40% | below 40% | –
2 | bovine SOD: Superoxide dismutase derived from a bovine blood produced by Toyobo Co., Japan | 6 min | 0.15 h | – | – | – | – | – | – | – | – | – | – | – | – | – | – | – | – | 3000 units/mg
3 | human SOD: SOD derived from human erythrocyte purchased from Sigma Co. | 6 min | 0.15 h | – | – | – | – | – | – | – | – | – | – | – | – | – | – | – | – | 2300 units/mg
